IC50 data for five molecules are collected here from US20160272683A1 (Novo Nordisk, published 2016).

Numbered stars: 1 amine (or outer) side, 2 acyl side, 3 side chain; on linkers, the order of the positions; unused ones are H or OH. Side chains are listed from the residue outwards. Ends that are not written are not given here. * marks the point of attachment. C20 diacid = O=C(O)CCCCCCCCCCCCCCCCCCC(=O)*; C18 diacid = O=C(O)CCCCCCCCCCCCCCCCC(=O)*; γGlu = O=C(O)[C@H](CCC(=O)[*:2])N[*:1]; AEEA = NCCOCCOCC(=O)O

The target of test [1] is T1, human calcitonin receptor (human, UniProt P30988 25-474).
T1 construct: whole, on cells; Assay VII: membranes on SPA beads; also called hCT-R; hCTR
T1 sequence (looked up): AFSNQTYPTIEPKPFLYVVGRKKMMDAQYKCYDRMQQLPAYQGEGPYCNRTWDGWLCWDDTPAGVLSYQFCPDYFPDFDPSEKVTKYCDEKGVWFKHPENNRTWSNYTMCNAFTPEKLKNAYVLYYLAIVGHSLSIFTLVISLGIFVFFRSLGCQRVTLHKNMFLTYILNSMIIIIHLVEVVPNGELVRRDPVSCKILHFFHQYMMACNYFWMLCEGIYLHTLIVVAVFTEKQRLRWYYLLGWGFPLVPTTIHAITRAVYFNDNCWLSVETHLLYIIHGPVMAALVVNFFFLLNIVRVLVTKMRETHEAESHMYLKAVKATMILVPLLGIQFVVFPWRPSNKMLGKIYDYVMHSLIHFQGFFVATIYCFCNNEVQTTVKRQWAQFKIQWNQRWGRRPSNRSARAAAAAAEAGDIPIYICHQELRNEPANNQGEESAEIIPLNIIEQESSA
The experiment in a line: SPA competition vs 125I-calcitonin, membranes with human CTR (Assay VII). The procedure: The binding assay was performed using scintillation proximity assay (SPA) beads (RPNQ0001) from PerkinElmer® and cell membranes prepared from a BHK tk'ts 13 cell line was stably transfected with the human calcitonin receptor and a CRE-responsive luciferase reporter gene. Membranes were prepared in the following way; the cells were rinsed with PBS and incubated with Versene for approximately 5 min before harvesting. The cells were flushed with PBS and the cell-suspension was centrifuged for 5 min at 1000 rpm.
(§1) EDTA (pH 7.4, buffer 2). The resulting pellet was resuspended in buffer 2 and protein concentration was tested (BCA protein Assay, Pierce). The homogenate was kept cold during the whole procedure. The membranes were kept at −80° C. until use. Assay was performed in a 384 well Optiplate (PerkinElmer®) in a total volume of 40 ul. Membranes were mixed with SPA beads. Final concentration of membranes 35 ng/μL final and Final concentration of SPA beads was 0.05 mg/well. Test-compounds were dissolved in DMSO and further diluted in assay buffer (50 mM Hepes, pH 7.4, 1 mM CaCl2, 5 mM MgCl2, 0.1% OA and 0.02% Tween20). […] Samples were analyzed on TopCounter™ (Packard). The IC₅₀ was calculated using (one site binding competition analysis) GraphPad Prism5 as a measure of receptor affinity.

In test [2] the target is T2, human amylin receptor (amylin 3(a) receptor: human calcitonin receptor with RAMP-3) (human, UniProt P30988 25-474; O60896 24-148, limits assumed).
T2 construct: whole, on cells; Assay V: membranes of the Amylin 3(a)/CRE-luc BHK cells on SPA beads; also called hAmylin-R
T2 sequence (looked up) 1: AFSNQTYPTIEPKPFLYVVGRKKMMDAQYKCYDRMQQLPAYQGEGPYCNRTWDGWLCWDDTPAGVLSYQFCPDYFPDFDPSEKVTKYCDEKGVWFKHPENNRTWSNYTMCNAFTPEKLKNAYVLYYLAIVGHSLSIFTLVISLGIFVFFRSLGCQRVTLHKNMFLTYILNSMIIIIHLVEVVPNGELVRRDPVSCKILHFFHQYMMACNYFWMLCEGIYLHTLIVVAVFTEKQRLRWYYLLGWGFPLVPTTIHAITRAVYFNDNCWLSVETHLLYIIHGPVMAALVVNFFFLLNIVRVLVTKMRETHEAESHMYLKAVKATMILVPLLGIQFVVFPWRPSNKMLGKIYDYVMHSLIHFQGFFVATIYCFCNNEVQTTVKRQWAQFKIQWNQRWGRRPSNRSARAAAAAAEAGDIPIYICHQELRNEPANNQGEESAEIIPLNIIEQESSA
T2 sequence (looked up) 2: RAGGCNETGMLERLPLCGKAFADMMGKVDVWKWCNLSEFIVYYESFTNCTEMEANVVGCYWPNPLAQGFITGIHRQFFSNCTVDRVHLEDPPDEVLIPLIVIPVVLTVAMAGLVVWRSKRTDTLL
The experiment in a line: SPA competition vs 125I-rat amylin, membranes with human CTR + RAMP-3 (Assay V). The procedure: as §1, with “The binding assay was performed using scintillation proximity assay (SPA) beads (RPNQ0001) from PerkinElmer and cell membranes from the Amylin 3(a)/CRE-luc cells (as described in Assay (II)) were used. Membranes were prepared in the following way; the cells were rinsed with PBS and incubated with Versene for approximately 5 min before harvesting. The cells were flushed with PBS and the cell-suspension was centrifuged for 5 min at 1000 rpm. […] The” for “EDTA (pH 7.4, buffer 2). The”, “use. The assay” for “use. Assay”, “Optiplate (PerkinElmer)” for “Optiplate (PerkinElmer®)”, “and” for “and Final concentration of”

B1: [N-terminal(C20 diacid-gGlu-2xOEG), des1, 4G, 9V, 15Q, 21Q, 23Y, 30S, 31G, 32T, 33Y]mimylin (peptide)
peptide: {C20 diacid-γGlu-AEEA-AEEA}-ASGLSTAVLGRLSQELHELQTYPRTETGSGTY-NH2
SMILES: CC(C)C[C@H](NC(=O)CNC(=O)[C@H](CO)NC(=O)[C@H](C)NC(=O)COCCOCCNC(=O)COCCOCCNC(=O)CC[C@H](NC(=O)CCCCCCCCCCCCCCCCCCC(=O)O)C(=O)O)C(=O)N[C@@H](CO)C(=O)N[C@H](C(=O)N[C@@H](C)C(=O)N[C@H](C(=O)N[C@@H](CC(C)C)C(=O)NCC(=O)N[C@@H](CCCNC(=N)N)C(=O)N[C@@H](CC(C)C)C(=O)N[C@@H](CO)C(=O)N[C@@H](CCC(N)=O)C(=O)N[C@@H](CCC(=O)O)C(=O)N[C@@H](CC(C)C)C(=O)N[C@@H](Cc1c[nH]cn1)C(=O)N[C@@H](CCC(=O)O)C(=O)N[C@@H](CC(C)C)C(=O)N[C@@H](CCC(N)=O)C(=O)N[C@H](C(=O)N[C@@H](Cc1ccc(O)cc1)C(=O)N1CCC[C@H]1C(=O)N[C@@H](CCCNC(=N)N)C(=O)N[C@H](C(=O)N[C@@H](CCC(=O)O)C(=O)N[C@H](C(=O)NCC(=O)N[C@@H](CO)C(=O)NCC(=O)N[C@H](C(=O)N[C@@H](Cc1ccc(O)cc1)C(N)=O)[C@@H](C)O)[C@@H](C)O)[C@@H](C)O)[C@@H](C)O)C(C)C)[C@@H](C)O
notes: mimylin derivative; des1 = residue 1 deleted; also called Ex. #120; 120
As to B1, the 50% inhibitory concentration (IC50) in test [1] came to 0.091 nM; in test [2] it was 0.166 nM.

B2: [des1, 4K(C20 diacid-gGlu), 30S, 31G]mimylin (peptide)
peptide: ASK([γGlu-C20 diacid])LSTAALGRLSAELHELATLPRTETGSGSP-NH2
modifications: N-terminus assumed
SMILES: CC(C)C[C@H](NC(=O)[C@H](C)NC(=O)[C@H](C)NC(=O)[C@@H](NC(=O)[C@H](CO)NC(=O)[C@H](CC(C)C)NC(=O)[C@H](CCCCNC(=O)CC[C@H](NC(=O)CCCCCCCCCCCCCCCCCCC(=O)O)C(=O)O)NC(=O)[C@H](CO)NC(=O)[C@H](C)N)[C@@H](C)O)C(=O)NCC(=O)N[C@@H](CCCNC(=N)N)C(=O)N[C@@H](CC(C)C)C(=O)N[C@@H](CO)C(=O)N[C@@H](C)C(=O)N[C@@H](CCC(=O)O)C(=O)N[C@@H](CC(C)C)C(=O)N[C@@H](Cc1c[nH]cn1)C(=O)N[C@@H](CCC(=O)O)C(=O)N[C@@H](CC(C)C)C(=O)N[C@@H](C)C(=O)N[C@H](C(=O)N[C@@H](CC(C)C)C(=O)N1CCC[C@H]1C(=O)N[C@@H](CCCNC(=N)N)C(=O)N[C@H](C(=O)N[C@@H](CCC(=O)O)C(=O)N[C@H](C(=O)NCC(=O)N[C@@H](CO)C(=O)NCC(=O)N[C@@H](CO)C(=O)N1CCC[C@H]1C(N)=O)[C@@H](C)O)[C@@H](C)O)[C@@H](C)O
notes: mimylin derivative; des1 = residue 1 deleted; also called Ex. #52; 52
Take B2: the IC50 in test [1] stood at 0.136 nM; in test [2], 0.724 nM.

B3: [des1, 19K(C20 diacid-gGlu), 30S, 31G]mimylin (peptide)
peptide: ASELSTAALGRLSAELHK([γGlu-C20 diacid])LATLPRTETGSGSP-NH2
modifications: N-terminus assumed
SMILES: CC(C)C[C@H](NC(=O)[C@H](C)NC(=O)[C@H](C)NC(=O)[C@@H](NC(=O)[C@H](CO)NC(=O)[C@H](CC(C)C)NC(=O)[C@H](CCC(=O)O)NC(=O)[C@H](CO)NC(=O)[C@H](C)N)[C@@H](C)O)C(=O)NCC(=O)N[C@@H](CCCNC(=N)N)C(=O)N[C@@H](CC(C)C)C(=O)N[C@@H](CO)C(=O)N[C@@H](C)C(=O)N[C@@H](CCC(=O)O)C(=O)N[C@@H](CC(C)C)C(=O)N[C@@H](Cc1c[nH]cn1)C(=O)N[C@@H](CCCCNC(=O)CC[C@H](NC(=O)CCCCCCCCCCCCCCCCCCC(=O)O)C(=O)O)C(=O)N[C@@H](CC(C)C)C(=O)N[C@@H](C)C(=O)N[C@H](C(=O)N[C@@H](CC(C)C)C(=O)N1CCC[C@H]1C(=O)N[C@@H](CCCNC(=N)N)C(=O)N[C@H](C(=O)N[C@@H](CCC(=O)O)C(=O)N[C@H](C(=O)NCC(=O)N[C@@H](CO)C(=O)NCC(=O)N[C@@H](CO)C(=O)N1CCC[C@H]1C(N)=O)[C@@H](C)O)[C@@H](C)O)[C@@H](C)O
notes: mimylin derivative; des1 = residue 1 deleted; also called Ex. #54; 54
For B3, the IC50 turned out to be 0.085 nM in test [1] and 0.442 nM in test [2].

B4: [des1, 16K(C20 diacid-gGlu), 30S, 31G]mimylin (peptide)
peptide: ASELSTAALGRLSAK([γGlu-C20 diacid])LHELATLPRTETGSGSP-NH2
modifications: N-terminus assumed
SMILES: CC(C)C[C@H](NC(=O)[C@H](C)NC(=O)[C@H](C)NC(=O)[C@@H](NC(=O)[C@H](CO)NC(=O)[C@H](CC(C)C)NC(=O)[C@H](CCC(=O)O)NC(=O)[C@H](CO)NC(=O)[C@H](C)N)[C@@H](C)O)C(=O)NCC(=O)N[C@@H](CCCNC(=N)N)C(=O)N[C@@H](CC(C)C)C(=O)N[C@@H](CO)C(=O)N[C@@H](C)C(=O)N[C@@H](CCCCNC(=O)CC[C@H](NC(=O)CCCCCCCCCCCCCCCCCCC(=O)O)C(=O)O)C(=O)N[C@@H](CC(C)C)C(=O)N[C@@H](Cc1c[nH]cn1)C(=O)N[C@@H](CCC(=O)O)C(=O)N[C@@H](CC(C)C)C(=O)N[C@@H](C)C(=O)N[C@H](C(=O)N[C@@H](CC(C)C)C(=O)N1CCC[C@H]1C(=O)N[C@@H](CCCNC(=N)N)C(=O)N[C@H](C(=O)N[C@@H](CCC(=O)O)C(=O)N[C@H](C(=O)NCC(=O)N[C@@H](CO)C(=O)NCC(=O)N[C@@H](CO)C(=O)N1CCC[C@H]1C(N)=O)[C@@H](C)O)[C@@H](C)O)[C@@H](C)O
notes: mimylin derivative; des1 = residue 1 deleted; also called Ex. #53; 53
In the case of B4, the IC50 in test [1] was 0.215 nM; in test [2], 0.114 nM.

B5: [N-terminal(C18 diacid-gGlu), des1, 6T, 9V, 14T, 21E, 30T, 31G, 32T]mimylin (peptide)
peptide: {C18 diacid-γGlu}-ASELTTAVLGRLTAELHELETLPRTETGTGTP-NH2
SMILES: CC(C)C[C@H](NC(=O)[C@H](CCC(=O)O)NC(=O)[C@H](C)NC(=O)[C@@H](NC(=O)[C@H](CC(C)C)NC(=O)[C@H](CCCNC(=N)N)NC(=O)CNC(=O)[C@H](CC(C)C)NC(=O)[C@@H](NC(=O)[C@H](C)NC(=O)[C@@H](NC(=O)[C@@H](NC(=O)[C@H](CC(C)C)NC(=O)[C@H](CCC(=O)O)NC(=O)[C@H](CO)NC(=O)[C@H](C)NC(=O)CC[C@H](NC(=O)CCCCCCCCCCCCCCCCC(=O)O)C(=O)O)[C@@H](C)O)[C@@H](C)O)C(C)C)[C@@H](C)O)C(=O)N[C@@H](Cc1c[nH]cn1)C(=O)N[C@@H](CCC(=O)O)C(=O)N[C@@H](CC(C)C)C(=O)N[C@@H](CCC(=O)O)C(=O)N[C@H](C(=O)N[C@@H](CC(C)C)C(=O)N1CCC[C@H]1C(=O)N[C@@H](CCCNC(=N)N)C(=O)N[C@H](C(=O)N[C@@H](CCC(=O)O)C(=O)N[C@H](C(=O)NCC(=O)N[C@H](C(=O)NCC(=O)N[C@H](C(=O)N1CCC[C@H]1C(N)=O)[C@@H](C)O)[C@@H](C)O)[C@@H](C)O)[C@@H](C)O)[C@@H](C)O
notes: mimylin derivative; des1 = residue 1 deleted
As to B5, the IC50 in test [1] was 0.222 nM; in test [2], 0.309 nM.

By IC50 is commonly meant the point on the concentration scale where inhibition reaches its midpoint.
